No end group written: not given here. *: point of attachment. Biotin = O=C1N[C@H]2[C@H](CS[C@H]2CCCCC(=O)*)N1

Assay [1] has as its target CLEC10A expressed on transfected HEK293 cells (human) (UniProt Q8IUN9). The experiment in a line: flow cytometry, live HEK293 transfectants, 5 µg/mL probe in PBS+Ca2+/Mg2+, AF647 anti-human Fc.
In assay [2] the target is T1, CD177 ECD-Fc (CD177 extracellular domain with Fc tag) (UniProt Q8N6Q3 22-408, limits assumed).
T1 construct: extracellular domain; also called CD177-Fc; recombinant CD177 ECD; not shown: Fc tag
T1 sequence (looked up): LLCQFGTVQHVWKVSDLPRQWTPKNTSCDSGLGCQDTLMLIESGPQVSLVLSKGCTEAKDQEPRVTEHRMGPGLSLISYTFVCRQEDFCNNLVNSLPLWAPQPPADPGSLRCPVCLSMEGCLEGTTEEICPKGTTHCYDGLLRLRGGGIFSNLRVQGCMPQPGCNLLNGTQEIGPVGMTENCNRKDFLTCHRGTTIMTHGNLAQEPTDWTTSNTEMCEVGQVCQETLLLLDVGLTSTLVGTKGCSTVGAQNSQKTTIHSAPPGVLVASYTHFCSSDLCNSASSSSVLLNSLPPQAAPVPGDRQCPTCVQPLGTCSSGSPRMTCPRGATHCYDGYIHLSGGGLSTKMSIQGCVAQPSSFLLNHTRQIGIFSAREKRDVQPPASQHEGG
Briefly: ELISA, immobilized CD177 ECD-Fc, biotinylated peptide pre-incubated with HRP-streptavidin. As for the experimental part: To evaluate the binding of aglycosylated hSMAGP ECD to CD177, an hSMAGP ECD peptide (H2N-[…]-Biotin-amide (SEQ ID NO: 62)) was chemically synthesized. An extra lysine residue was added to the C terminus to facilitate biotinylation. Another peptide, with a scrambled hSMAGP ECD sequence (H2N-[…]-Biotin-amide (SEQ ID NO: 63)), was synthesized as a control. Peptide binding to the recombinant CD177 ECD-Fc (CD177 extracellular domain with Fc tag) or hIgG1-Fc (IgG1 domain with Fc tag) negative control was evaluated in an enzyme-linked immunosorbent assay (ELISA). CD177 ECD-Fc and hIgG1-Fc were immobilized to separate Corning 96-well Clear Flat Bottom Polystyrene High Bind Microplates at 4° C. overnight in PBS. Plates were blocked using 5% skim milk. Biotinylated hSMAGP ECD peptide or the scrambled control (10 μg/ml) was pre-incubated with HRP-conjugated streptavidin (5 μg/ml) and added to the plates. In a control assay, an anti-CD177 antibody (Biolegend Cat #315802; 10 μg/ml) was premixed with the biotinylated SMAGP ECD peptide. The signal was developed using TMB substrate. The assay was performed in triplicate.
A general note: ELISA stands for enzyme-linked immunosorbent assay.

Sequence of CLEC10A expressed on transfected HEK293 cells (human) (Q8IUN9 whole entry, the tested form may be a part): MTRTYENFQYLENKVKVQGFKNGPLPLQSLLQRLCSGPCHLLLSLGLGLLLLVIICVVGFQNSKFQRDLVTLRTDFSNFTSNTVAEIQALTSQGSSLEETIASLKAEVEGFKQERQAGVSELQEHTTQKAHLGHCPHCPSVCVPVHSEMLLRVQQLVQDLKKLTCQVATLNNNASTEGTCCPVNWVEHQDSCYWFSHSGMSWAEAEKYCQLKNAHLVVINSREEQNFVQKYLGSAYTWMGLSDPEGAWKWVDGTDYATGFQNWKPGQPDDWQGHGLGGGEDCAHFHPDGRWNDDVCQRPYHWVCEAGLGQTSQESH

hSMAGP ECD-hIgG1 Fc (Fc fusion) registered a fold change in median fluorescence intensity over control cells in assay [1] of 3.3 fold.

B1: aglycosylated scrambled hSMAGP ECD peptide (peptide)
peptide: TRTTLIMESTTPALMLLEPLGSPQDAPTSTEEAPSLK(Biotin)-NH2
modifications: N-terminus assumed
SMILES: CC[C@H](C)[C@H](NC(=O)[C@H](CC(C)C)NC(=O)[C@@H](NC(=O)[C@@H](NC(=O)[C@H](CCCNC(=N)N)NC(=O)[C@@H](N)[C@@H](C)O)[C@@H](C)O)[C@@H](C)O)C(=O)N[C@@H](CCSC)C(=O)N[C@@H](CCC(=O)O)C(=O)N[C@@H](CO)C(=O)N[C@H](C(=O)N[C@H](C(=O)N1CCC[C@H]1C(=O)N[C@@H](C)C(=O)N[C@@H](CC(C)C)C(=O)N[C@@H](CCSC)C(=O)N[C@@H](CC(C)C)C(=O)N[C@@H](CC(C)C)C(=O)N[C@@H](CCC(=O)O)C(=O)N1CCC[C@H]1C(=O)N[C@@H](CC(C)C)C(=O)NCC(=O)N[C@@H](CO)C(=O)N1CCC[C@H]1C(=O)N[C@@H](CCC(N)=O)C(=O)N[C@@H](CC(=O)O)C(=O)N[C@@H](C)C(=O)N1CCC[C@H]1C(=O)N[C@H](C(=O)N[C@@H](CO)C(=O)N[C@H](C(=O)N[C@@H](CCC(=O)O)C(=O)N[C@@H](CCC(=O)O)C(=O)N[C@@H](C)C(=O)N1CCC[C@H]1C(=O)N[C@@H](CO)C(=O)N[C@@H](CC(C)C)C(=O)N[C@@H](CCCCNC(=O)CCCC[C@@H]1SC[C@@H]2NC(=O)N[C@@H]21)C(N)=O)[C@@H](C)O)[C@@H](C)O)[C@@H](C)O)[C@@H](C)O
notes: Pre-incubated with HRP-conjugated streptavidin before addition to the plates; also called scrambled control
As for B1, in assay [2], the binding result was “no binding (tested: 10 µg/ml)”.

The values above are taken from US20260098070A1 (DEM BIOPHARMA, published 2026).
